{
  "source": "paper PMC9503459",
  "about": "“Antifungal Activity, Structural Stability, and Immunomodulatory Effects on Human Immune Cells of Defensin from the Lentil Lens culinaris” (Membranes, 2022)",
  "molecules": {"B1": {"name": "α-casein: model protein substrate bovine α-casein (protein, UniProt P02662 16-214, looked up)", "Alpha-S1-casein": "RPKHPIKHQGLPQEVLNENLLRFFVAPFPEVFGKEKVNELSKDIGSESTEDQAMEDIKQMEAESISSSEEIVPNSVEQKHIQKEDVPSERYLGYLEQLLRLKKYKVPQLEIVPNSAEERLHSMKEGIHAQQKEPMIGVNQELAYFYPELFRQFYQLDAYPSGAWYYVPLGTQYTDAPSFSDIPNPIGSENSEKTTMPLW"}},
  "key": {"[1]": {"test_system": "proteolytic enzymes of Candida albicans", "experiment": "Sensitivity to proteolytic enzymes of Candida albicans (cell lysate, SDS-PAGE)", "format": "in vitro ADME", "conditions": "for stability to proteolysis by yeast: up to 72 h", "description": "(§1) For study of Lc-def sensitivity to the clinical isolate of C. albicans, lysates of yeast cells in different concentration and pH were used basically as previously described for rhesus macaque θ-defensin 1 [22]. Cells were inoculated onto modified YPD medium and grown at 37 ℃ for 48 h before reaching the stationary phase of growth. Cells were harvested by centrifugation, washed two times in sterile phosphate buffered saline (PBS), pH 7.2, or sterile 40 mM sodium acetate, pH 4.0, and resuspended in the corresponding buffer to final concentrations of 1 × 10^9 cells/mL or 1 × 10^3 cells/mL. Two freeze-thaw cycles in liquid nitrogen were used for cell disruption, and supernatants were collected following centrifugation. Supernatants (12.5 μL) were mixed with water solutions (37.5 μL) of Lc-def, α-casein, Psd1, or LL-37 in concentration of 0.67 mg/mL and incubated at 37 ℃ for 72 or 24 h in the case of high or low cell concentration, respectively. To study the possible influence of Lc-def and Psd1 on the degradation process, supernatants (12.5 μL) were mixed with both α-casein or LL-37 in concentration of 1 mg/mL (25 μL) and Lc-def or Psd1 in concentration of 2 mg/mL (12.5 μL). As negative controls, α-casein and peptides were mixed with buffers as well as supernatants were mixed with water without the proteins. The samples were mixed with sample buffer without β-mercaptoethanol (BME), heated at 100 ℃ for 2 min, and analyzed by sodium dodecyl sulfate polyacrylamide gel electrophoresis (SDS-PAGE). Some independent experiments were performed in each case."}, "[2]": {"test_system": "proteolytic enzymes of Candida albicans", "experiment": "Influence of defensins on degradation of proteins by C. albicans lysate", "format": "biochemical", "conditions": "C. albicans lysate 10^3 cells/mL, pH 7.2, up to 24 h, SDS-PAGE", "description": "as §1"}, "[3]": {"experiment": "CD spectroscopy, secondary structure at different pH and temperature", "format": "physicochemical", "conditions": "far-UV CD, 30 µM, 10 mM phosphate buffer pH 7.4", "description": "Circular dichroism spectra were recorded at different temperatures using a J-810 spectropolarimeter (Jasco, Hachioji, Tokyo, Japan) in a 0.1 cm path length quartz cell (Hellma GmbH and Co. KG, Mullheim, Germany) in the 190–250 nm range 0.2 using solutions of Lc-def in 10 mM phosphate buffer, pH 7.4, or 150 mM sodium chloride, pH 2.5, simulated gastric fluid, at a concentration of 30 µM. Lysolipids were added at final concentration of 1 mM."}, "C. albicans": {"test_system": "C. albicans", "conditions": "at 20 μM; cited from earlier work", "description": "Here, we investigated an ability of Lc-def to inhibit the growth of clinical isolates of Candida albicans, C. krusei, and C. glabrata. An antifungal activity against Candida species has been shown previously for some plant defensins. For example, the pea defensin Psd1 at the concentration of 20 μM and PvD1 from the common bean at 18.4 μ ..."}, "[4]": {"test_system": "pepsin, trypsin, α-chymotrypsin", "experiment": "Simulated gastrointestinal digestion in vitro", "format": "in vitro ADME, porcine pepsin and trypsin, bovine α-chymotrypsin", "conditions": "pepsin, 0.1 M HCl pH 2.0 (data not shown)", "excerpt": "Digestive enzymes (porcine pepsin and trypsin, bovine α-chymotrypsin), model protein substrate bovine α-casein, and secondary anti-rabbit IgG polyclonal goat antibodies conjugated to HRP and 3,3′,5,5′-tetramethylbenzidine (TMB) substrates were purchased from Sigma-Aldrich (St. Louis, MO, USA). Synthetic lysophospholipids (lyso-palmitoyl phosphatidylcholine (LPPC), lyso-palmitoyl phosphatidylglycerol (LPPG)) were purchased from Avanti Polar Lipids (Alabaster, AL, USA).\nSensitivity of Lc-def to digestive enzymes was examined by simulation of its gastrointestinal digestion in vitro. Gastric digestion was performed for 2 h, using 50 ng of pepsin per 1 μg of preheated at 100 °C for 30 min and intact Lc-def in 0.1 M HCl, pH 2.0. For duodenal digestion, the pH of the mixture resulting from gastric digestion was adjusted to 8.0 by addition of ammonium bicarbonate. The obtained mixture was incubated for 24 h at 37 °C with 2.5 ng of trypsin and 10 ng of α-chymotrypsin per 1 μg of the defensin. The degree of proteolysis was monitored by SDS-PAGE and RP-HPLC. Gel analysis was performed using Gel Doc XR^+ imaging system (Bio-Rad, Hercules, CA, USA) and Image Lab Software v.6.1.0 (Bio-Rad, Hercules, CA, USA). Some independent experiments were performed in each case. The experiment with α-casein was carried out for comparison."}, "[5]": {"conditions": "C. albicans lysate 10^9 cells/mL, 40 mM sodium acetate pH 4.0, 37 °C, SDS-PAGE"}},
  "note": "No end group written: not given here.",
  "data": [
    {"molecule": "CC[C@H](C)[C@H](NC(=O)[C@H](CCCCN)NC(=O)[C@H](CCC(=O)O)NC(=O)[C@H](CCCCN)NC(=O)[C@H](CO)NC(=O)[C@H](CCCCN)NC(=O)[C@H](CCCNC(=N)N)NC(=O)[C@H](Cc1ccccc1)NC(=O)[C@H](Cc1ccccc1)NC(=O)[C@H](CC(=O)O)NC(=O)CNC(=O)[C@H](CC(C)C)NC(=O)[C@@H](N)CC(C)C)C(=O)NCC(=O)N[C@@H](CCCCN)C(=O)N[C@@H](CCC(=O)O)C(=O)N[C@@H](Cc1ccccc1)C(=O)N[C@@H](CCCCN)C(=O)N[C@@H](CCCNC(=N)N)C(=O)N[C@H](C(=O)N[C@H](C(=O)N[C@@H](CCC(N)=O)C(=O)N[C@@H](CCCNC(=N)N)C(=O)N[C@H](C(=O)N[C@@H](CCCCN)C(=O)N[C@@H](CC(=O)O)C(=O)N[C@@H](Cc1ccccc1)C(=O)N[C@@H](CC(C)C)C(=O)N[C@@H](CCCNC(=N)N)C(=O)N[C@@H](CC(N)=O)C(=O)N[C@@H](CC(C)C)C(=O)N[C@H](C(=O)N1CCC[C@H]1C(=O)N[C@@H](CCCNC(=N)N)C(=O)N[C@H](C(=O)N[C@@H](CCC(=O)O)C(=O)N[C@@H](CO)C(=O)O)[C@@H](C)O)C(C)C)[C@@H](C)CC)C(C)C)[C@@H](C)CC", "note": "[LL-37, reference compound]", "values": [
      {"measurement": "remaining at 24 h, 0.5 mg/mL", "setting": "[1]; Candida albicans cell lysate supernatant (1 × 10^3 cells/mL), C. albicans lysate 10^3 cells/mL, pH 7.2, 37 °C, 24 h, densitometric gel analysis, read-out: intact peptide present in the hydrolysate", "result": "~30", "unit": "%"}
    ]},
    {"molecule": "Psd1: pea Pisum sativum defensin (UNIPROT P81929), recombinant (KTCEHLADTYRGVCFTNASCDDHCKNKAHLISGTCHNWKCFCTQNC; ends and bridges not checked; cysteine pairing not given here; UniProt P81929 1-46, looked up) [reference compound]", "values": [
      {"measurement": "influence on the rate of α-casein degradation", "setting": "[2]", "result": "but not Psd1 decreased the rate of α-casein degradation"},
      {"measurement": "stability to proteolysis by yeast", "setting": "[1]; [5]", "result": "stable"},
      {"measurement": "stability to proteolysis by yeast", "setting": "[1]; C. albicans lysate 10^9 cells/mL, PBS pH 7.2, 37 °C, SDS-PAGE, densitometry, immunoblotting", "result": "stable"},
      {"measurement": "Random, %", "setting": "[3]", "result": 30.7, "unit": "%"},
      {"measurement": "α-Helix, %", "setting": "[3]", "result": 14.8, "unit": "%"},
      {"measurement": "β-Sheet, %", "setting": "[3]", "result": 31.8, "unit": "%"},
      {"measurement": "β-Turn, %", "setting": "[3]", "result": 22.8, "unit": "%"},
      {"measurement": "growth inhibition of C. albicans", "setting": "C. albicans", "result": 100, "unit": "%"}
    ]},
    {"molecule": "B1", "values": [
      {"measurement": "time after which the protein band was absent", "setting": "[1]; C. albicans lysate 10^3 cells/mL, pH 7.2, 37 °C, SDS-PAGE", "result": "≤ 8", "unit": "h"},
      {"measurement": "stability to proteolysis by yeast", "setting": "[1]; [5]", "result": "slow"},
      {"measurement": "time to complete degradation", "setting": "[1]; C. albicans lysate 10^9 cells/mL, pH 7.2, 37 °C, SDS-PAGE", "result": "≤ 2", "unit": "h"},
      {"measurement": "time to almost complete degradation by pepsin", "setting": "[4]", "result": "≤ 5", "unit": "min"}
    ]}
  ]
}
